Assay results published in patent US20220356497A1, “COMPOSITIONS AND METHODS FOR SYNTHESIS OF TERPENOIDS” (Zymergen Inc., priority 2019, published 2022).
Entries after “also recorded” stand apart in the source; their conditions may differ.

B1: NcatNOR15: candidate nepetalactol oxidoreductase (NOR) from Nepeta cataria, protein SEQ ID NO: 561 (protein, listed as Nepeta cataria)
chain: MAKTPETEHPVKAFGYAATDNSGTFSPFKFSRRATGERDVQFKVLYCGVCHSDLHMVKNEWGVTHYPIVPGHEIVGVATEVGSKVEKVKVGDKVGVGVIVGSCRQCDQCSNDLENYCSKQILTYGAPYLDGTITRGGYSDIMVADEHFIIRWPENFPLDAGAPLLCAGITTYSPLRYFGLDKPGLRVGVNGLGGLGHVAVKFAKAFGTKVTVISSSLRKKKEAVEKLGVDEFLVSTDPEQMQAAIGTLDGIIDTVSAEHSVVSLLSLLKPHGRLIVVGAPEKPHQLPAFPLITGRKSISGSAIGGMKETQEMIDFAAKHNILPDVEVIPIDYINTAMERLLKSDVKYRFVIDVEKSLKA
B2: NcatNOR34: candidate nepetalactol oxidoreductase (NOR) from Nepeta cataria, protein SEQ ID NO: 578 (protein, listed as Nepeta cataria)
chain: MAFCRSSLLLRKALGGSRRAAAAATCSSAYACGWQSERGRWYSGGEGTTISAPGYHVNTAPSHMTGAVFWDKDKPITYEEFEMPRPKANEVLIKTKACGACHSDLHVIKGDLKFPCPCILGHEITGEVVEHGPLTETKYIERYPVGSKVIGAFIMPCGSCFYCSRGEDDLCEPYFAYNRAKGTLYDGQTRLFLRGSGKPVHMWSMSGLAEYCVTPVNGLGALPDTLPYAESSVLGCAVFTAYGAIAHAAEVKPGNSVAVIGIGGVGSSCLQIAKAFGASEIIAVDVEDGKLETAKTFGATHIINSRKEDAIAKIKELTDGRGVDIAVEAIGGPKTFAQCVGSVRAGGKAVMIGLSPTGGKGEVEITQLVRRKVKVIGSYGGRAMTDLPKLVELAEQGTFNLEAAVTRRYKFEEVAQAYQDLQNKTIVGRGVIEIM
B3: NcatNOR21: candidate nepetalactol oxidoreductase (NOR) from Nepeta cataria, protein SEQ ID NO: 566 (protein, listed as Nepeta cataria)
chain: MAKSVNAVGWAARDTSGLLSPLKFARPAAGDRDVQFKVLYCGICHSDLHSIKNEWGNTQYPIVPGHEIVGVVTAVGPKATKFKAGDKVGVGCLVNSCRHCDQCAADLENYCPQLVQTYNSVLADGSVTYGGYSDVMTADEDFVIRWPENFPMDKGAPLLCAGVTTYSPLRYYGLDKPGLHIGVVGLGGLGHVAVKFAKAFGMKVTVISTSAGKKKEAIETLGADAFLISRDASEMQAAAGTLDGMIDTVSAQHPLPPLLSLLKPHGKLILVGAPEKPFELPAFPLLMGRKTVAGSVIGGLKETQEMIDFAAKHNLLPEVEMIPMDYVNTAMERLAKADVKYRFVIDVGNTLTKAD
B4: GAR_NOR15: NOR candidate (SEQ ID NO: 1393) expressed in Saccharomyces cerevisiae from pESC-URA (protein)
chain: MADKEGEVVCVTGGSGFIGSWLVSLLLRRGYSVRATVKNLGDERETKHLEAIEGADSRLSLFQIDLLDYDSVATAVGDAAGVFHLASPCTIDQVNDPQRELLDPAIKGTLNVLKAAKNLGVRRVVVTSSISAMIASSNSLAETGEDCWIDEDYCRQNGLWYPVSKALAEKAAWKLAEENGLDIVVVNPGMVVGPILPPALNSSMQLMLHVLQGKDFFEGFFMGLVHVKDVALAQILLYENTSASGRHLCVESLSRYDDFAKQMEKLYPEYKLPRFSNNAQHGSLKSDAALKKLRDLGIEFAPLEQIVKDSIESLRSKGYIS
modifications: Nepeta cataria or Nepeta mussinii

How the values were obtained:
nepetalactol [1] = experiment: In vitro characterization of NOR candidates: conversion of nepetalactol to nepetalactone in clarified E. coli cell lysate (GC-MS); type: biochemical, Escherichia coli; conditions: NAD+ or NADP+, 30° C., 2 hours
Experimental: The plasmids were individually transformed into chemically competent BL21 (DE3) cells. pUC19 was also transformed into BL21 (DE3) to produce a strain that could serve as a negative control. Transformants were selected and grown overnight with shaking in LB medium containing kanamycin. Glycerol stocks were prepared by mixing overnight culture with 50% glycerol in a 1:1 ratio. Glycerol stocks were frozen at −80° C.
BL21 (DE3) strains were streaked out on LB plates containing kanamycin from glycerol stock and grown overnight at 37° C. A single colony was inoculated into 4 mL of LB medium containing kanamycin in 15 mL disposable culture tubes and incubated overnight at 30° C. with shaking at 250 rpm. 500 μL of the overnight culture was subcultured into 50 mL of LB medium containing kanamycin in a 250 mL baffled flask. The culture was grown at 37° C. and the optical density at 600 nm (OD600) was monitored. When OD600 reached between 0.6-1, the cultures were cooled on ice for 15 minutes. The cultures were then induced with 100 μM of isopropyl β-D-1-thiogalactopyranoside and incubated at 15° C. with shaking at 250 rpm for roughly 20 hours. Cultures were pelleted by centrifugation in 50 mL centrifuge tubes. The supernatant was decanted and the pellets were frozen at −20° C. for later processing.
Pellets were thawed on ice and resuspended with 3 mL of cold lysis buffer: 50 mM sodium phosphate, pH=7.4, 100 mM sodium chloride. All remaining steps were performed either on ice or at 4° C. The cell mixture was transferred to a 15 mL centrifuge tube and disrupted with three rounds of sonication using the Branson Sonitier 450 with a double-level microtip at 70% amplitude. A single round of sonication consisted of 6 cycles of 10 seconds with the sonicator on, and 10 seconds off Between each round, the cell mixture was allowed to sit on ice for a minute to cool. The lysed cell mixture was transferred to 1.7 mL centrifuge tubes and centrifuged at maximum speed in a microcentrifuge for 20 minutes. The supernatant (clarified cell lysate) was collected in a separate tube and used for in vitro characterization.
The in vitro reactions were setup as follows: 2 μL of 100 mM NAD+ or NADP+ and 10 μL of 100 uM nepetalactol was added to 188 μL of the clarified cell lysate. The reactions were incubated at 30° C. shaking at 200 rpm for 2 hours. As a positive control, 2 μL of 100 mM NAD+, 2 μL of 100 mM NADP+ and 10 μL of 100 μM nepetalactone was added to 186 μL of clarified lysate from a strain harboring pUC 19 and incubated for 1 hr. The reactions were extracted with one volume of ethyl acetate. The organic layer was withdrawn and analyzed with gas chromatography coupled to mass spectrometry (GC-MS). Authentic standards were run to confirm identities of analytes.

nepetalactol [2] = experiment: Production of nepetalactone from fed nepetalactol in Saccharomyces cerevisiae strains expressing NOR candidates from pESC-URA; type: cell-based; conditions: 100 mg/L nepetalactol, 2% galactose, 24 hours
Experimental: The plasmids were individually transformed into chemically competent Saccharomyces cerevisiae cells as described in EXAMPLE 2. Transformants were selected on SD-URA agar plates. Three to four replicates were picked into SD-URA liquid medium and cultured at 30° C. for one to two days with shaking at 1000 rpm. Cultures were glycerol stocked at a final concentration of 16.6% glycerol and stored at −80° C. until later use.
10 μL of the glycerol stocked strains was inoculated into 300 μL of minimal media lacking uracil, and containing 4% glucose in 96-well plates to produce seed cultures. The plates were incubated at 30° C. at 1000 rpm for 1-2 days. 10 μL of the seed cultures was then inoculated into 300 μL of minimal media lacking uracil, and containing 2% galactose and 100 mg/L of nepetalactol. 30 μL of methyl oleate was next added to the wells. […]
Cell density was determined using a spectrophotometer by measuring the absorbance of each well at 600 nm. […] The plates were shaken for 25 sat 750 rpm immediately before being measured on a Tecan M1 000 spectrophotometer. […] The plates were centrifuged and the ethyl acetate layer was collected and analyzed by liquid chromatography coupled to mass spectrometry (LC-MS). Target analytes were quantified against authentic standards.

Molecule	conversion (oxidation) of nepetalactol to nepetalactone (nepetalactol [1])	conversion (oxidation) of nepetalactol to nepetalactone (nepetalactol [1]; listed as NcatNORI5)	nepetalactone produced (nepetalactol [2]) [mg/L]
B1	can convert nepetalactol to nepetalactone	can oxidize nepetalactol to nepetalactone	
B2	can convert nepetalactol to nepetalactone; also recorded: can oxidize nepetalactol to nepetalactone		
B3	can convert nepetalactol to nepetalactone; also recorded: can oxidize nepetalactol to nepetalactone		
B4			93
